From the Immune Epitope Database (IEDB)
One block for each sequence: values may come before it.

Tests used:
HLA-B*18:01 [1] = assay: IEDB peptide-MHC binding, purified MHC/competitive/fluorescence; filed as Kd, often an IC50 or EC50 that approximates it; ≥ and ≤ were set here for values at or beyond the usual limits of such assays; settings: source organism: Homo sapiens
HLA-B*51:01 [2] = assay: as above; settings: source organism: Homo sapiens
HLA-B*57:01 = assay: as above; settings: source organism: Homo sapiens
HLA-A*69:01 = assay: as above
HLA-A*02:01 [3] = assay: as above; settings: source organism: Homo sapiens
HLA-B*39:01 = assay: as above; settings: source organism: Homo sapiens
HLA-B*15:01 = assay: as above; settings: source organism: Homo sapiens
HLA-B*46:01 = assay: as above; settings: source organism: Homo sapiens
HLA-B*27:03 = assay: as above; settings: source organism: Homo sapiens
HLA-A*26:01 = assay: as above; settings: source organism: Homo sapiens
HLA-B*15:17 = assay: as above; settings: source organism: Homo sapiens
HLA-B*18:01 [4] = assay: IEDB peptide-MHC binding, purified MHC/competitive/radioactivity; filed as Kd, often an IC50 or EC50 that approximates it; ≥ and ≤ were set here for values at or beyond the usual limits of such assays
HLA-B*44:02 = assay: as above
HLA-B*40:01 = assay: as above
HLA-B*40:02 = assay: as above
HLA-B*44:03 = assay: as above
HLA-B*45:01 = assay: as above
HLA-A*02:01 [5] = assay: as above
HLA-A*02:06 = assay: as above; settings: source organism: Dengue virus 2 Jamaica/1409/1983
HLA-A*24:03 = assay: IEDB peptide-MHC binding, purified MHC/direct/fluorescence; filed as Kd, often an IC50 or EC50 that approximates it; ≥ and ≤ were set here for values at or beyond the usual limits of such assays
HLA-B*48:01 = assay: as above; settings: source organism: Salmonella enterica subsp. enterica serovar Typhi
HLA-A*02:01 [6] = assay: as above; settings: source organism: Homo sapiens
HLA-B*51:01 [7] = assay: IEDB peptide-MHC binding, purified MHC/competitive/radioactivity; filed as Kd, often an IC50 or EC50 that approximates it; ≥ and ≤ were set here for values at or beyond the usual limits of such assays
HLA-B*53:01 = assay: as above; settings: source organism: Dengue virus 3 Martinique/1243/1999
HLA-B*08:01 = assay: as above; settings: source organism: Dengue virus 4 Philippines/H241/1956
[8] = source organism: SARS coronavirus Tor2
[9] = source organism: Mammarenavirus guanaritoense
[10] = source organism: Mammarenavirus brazilense
[11] = source organism: Lymphocytic choriomeningitis virus (strain Armstrong)

Kd (HLA-B*18:01 [1]): ≥ 20000 nM
Kd (HLA-B*51:01 [2]): ≥ 20000 nM
Kd (HLA-B*57:01): ≥ 20000 nM
Kd (HLA-A*69:01; source organism: Homo sapiens): ≥ 20000 nM
Kd (HLA-A*02:01 [3]): ≥ 20000 nM
Kd (HLA-B*39:01): ≥ 20000 nM
Kd (HLA-B*15:01): ≥ 20000 nM
Kd (HLA-B*46:01): ≥ 20000 nM
Kd (HLA-B*27:03): ≥ 20000 nM
Kd (HLA-A*26:01): ≥ 20000 nM
Kd (HLA-B*15:17): ≥ 20000 nM
Sequence: IYDFYYLDY

Sequence: KEEILGTVSW
Kd (HLA-B*18:01 [4]; [8]): 468 nM
Kd (HLA-B*44:02; [8]): 4.47 nM
Kd (HLA-B*40:01; [8]): 19500 nM
Kd (HLA-B*40:02; [8]): 266 nM
Kd (HLA-B*44:03; [8]): 48.1 nM
Kd (HLA-B*45:01; [8]): 2810 nM

Sequence: KLVSLGVNAV
Kd (HLA-A*02:01 [5]; source organism: Hepatitis C virus subtype 1b): 344 nM

Sequence: LVAGGLLTV
Kd (HLA-A*02:06): 3.95 nM
Kd (HLA-A*69:01; source organism: dengue virus type 2): ≥ 20000 nM

Sequence: LYNTAIVGL
Kd (HLA-A*24:03; source organism: Mycobacterium tuberculosis variant bovis): 0.8 nM

Sequence: MEAQFLYLYA
Kd (HLA-B*18:01 [4]; [8]): 351 nM
Kd (HLA-B*44:02; [8]): 56.3 nM
Kd (HLA-B*40:01; [8]): 1430 nM
Kd (HLA-B*40:02; [8]): 68.7 nM
Kd (HLA-B*44:03; [8]): 8.16 nM
Kd (HLA-B*45:01; [8]): 4.51 nM

Sequence: PECSDSPLVL
Kd (HLA-B*18:01 [4]; [9]): 17300 nM
Kd (HLA-B*44:02; [9]): ≥ 70200 nM
Kd (HLA-B*40:01; [9]): ≥ 33000 nM
Kd (HLA-B*40:02; [9]): 3150 nM
Kd (HLA-B*44:03; [9]): ≥ 70100 nM
Kd (HLA-B*45:01; [9]): ≥ 70000 nM

Sequence: QDPLLGTLS
Kd (HLA-B*18:01 [4]; [10]): ≥ 77500 nM
Kd (HLA-B*44:02; [10]): ≥ 77900 nM
Kd (HLA-B*40:01; [10]): ≥ 46400 nM
Kd (HLA-B*40:02; [10]): 12600 nM
Kd (HLA-B*44:03; [10]): ≥ 30400 nM
Kd (HLA-B*45:01; [10]): ≥ 74300 nM

Kd (HLA-A*02:01 [5]; source organism: Triticum aestivum): 384 nM
Sequence: QLIPCMDVVL

Sequence: RAVEPGSML
Kd (HLA-B*48:01): 712 nM

Sequence: REAPAHVST
Kd (HLA-B*18:01 [4]; [8]): 5190 nM
Kd (HLA-B*44:02; [8]): 4580 nM
Kd (HLA-B*40:01; [8]): 46.8 nM
Kd (HLA-B*40:02; [8]): 44.2 nM
Kd (HLA-B*44:03; [8]): 8470 nM
Kd (HLA-B*45:01; [8]): 108 nM

Sequence: REEAIRHVRA
Kd (HLA-B*18:01 [4]; [8]): ≥ 70500 nM
Kd (HLA-B*44:02; [8]): 18800 nM
Kd (HLA-B*40:01; [8]): 689 nM
Kd (HLA-B*40:02; [8]): 3330 nM
Kd (HLA-B*44:03; [8]): ≥ 45900 nM
Kd (HLA-B*45:01; [8]): 57.6 nM

Sequence: RELHLSWEV
Kd (HLA-B*18:01 [4]; [8]): 78.8 nM
Kd (HLA-B*44:02; [8]): 87.7 nM
Kd (HLA-B*40:01; [8]): 3.07 nM
Kd (HLA-B*40:02; [8]): 4.97 nM
Kd (HLA-B*44:03; [8]): 21.5 nM
Kd (HLA-B*45:01; [8]): 17.7 nM

Sequence: RELHLSWEVG
Kd (HLA-B*18:01 [4]; [8]): 1590 nM
Kd (HLA-B*44:02; [8]): 8.3 nM
Kd (HLA-B*40:01; [8]): 829 nM
Kd (HLA-B*40:02; [8]): 198 nM
Kd (HLA-B*44:03; [8]): 42.7 nM
Kd (HLA-B*45:01; [8]): 1280 nM

Sequence: SFMQEIPTF
Kd (HLA-A*24:03; source organism: Mammarenavirus juninense): 0.3 nM

Sequence: TEAILQLGDL
Kd (HLA-B*18:01 [4]; [11]): 10600 nM
Kd (HLA-B*44:02; [11]): 2480 nM
Kd (HLA-B*40:01; [11]): 2960 nM
Kd (HLA-B*40:02; [11]): 936 nM
Kd (HLA-B*44:03; [11]): 4300 nM
Kd (HLA-B*45:01; [11]): 13300 nM

Kd (HLA-B*18:01 [1]): ≥ 20000 nM
Kd (HLA-B*51:01 [2]): ≥ 20000 nM
Kd (HLA-B*57:01): ≥ 20000 nM
Kd (HLA-A*69:01; source organism: Homo sapiens): ≥ 20000 nM
Kd (HLA-B*39:01): ≥ 20000 nM
Kd (HLA-B*46:01): ≥ 20000 nM
Kd (HLA-B*27:03): ≥ 20000 nM
Kd (HLA-A*26:01): ≥ 20000 nM
Kd (HLA-B*15:17): ≥ 20000 nM
Kd (HLA-A*02:01 [6]): ≤ 1 nM
Sequence: TLKDGDFIL

Sequence: TPTGTVMDI
Kd (HLA-B*51:01 [7]; source organism: Dengue virus 3 Martinique/1243/1999): 7240 nM
Kd (HLA-B*53:01): 114 nM

Sequence: VALLRTYCI
Kd (HLA-B*51:01 [7]; source organism: Dengue virus 4 Philippines/H241/1956): 392 nM
Kd (HLA-B*08:01): 35.5 nM

Kd (HLA-B*15:17): 336 nM
Sequence: YSPALNKMF
